Reference: patent US12274759B2, “Affibody proteins specific for B7-H3 (CD276)” (THE BOARD OF TRUSTEES OF THE LELAND STANFORD JUNIOR …, priority 2018, dated 2025)

Target: T1, recombinant soluble human B7-H3 ectodomain protein (Homo sapiens, UniProt Q5ZPR3)
T1 construct: incubated with 3 μM of recombinant soluble human B7-H3 ectodomain protein
T1 sequence (Q5ZPR3 29-466 limits assumed): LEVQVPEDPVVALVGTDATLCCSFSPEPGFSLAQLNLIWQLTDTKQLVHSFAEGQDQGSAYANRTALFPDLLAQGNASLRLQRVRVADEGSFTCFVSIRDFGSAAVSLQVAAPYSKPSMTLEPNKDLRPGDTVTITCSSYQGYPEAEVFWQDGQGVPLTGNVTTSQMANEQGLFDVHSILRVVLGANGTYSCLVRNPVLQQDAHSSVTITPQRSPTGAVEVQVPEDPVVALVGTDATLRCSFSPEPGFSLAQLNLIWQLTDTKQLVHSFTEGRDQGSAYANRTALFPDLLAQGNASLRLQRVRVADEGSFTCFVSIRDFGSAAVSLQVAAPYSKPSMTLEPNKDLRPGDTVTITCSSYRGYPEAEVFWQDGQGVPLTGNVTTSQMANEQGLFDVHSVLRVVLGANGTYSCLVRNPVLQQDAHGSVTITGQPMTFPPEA
Experiment: Streptavidin bead binding to recombinant soluble human B7-H3 ectodomain by flow cytometry
Conditions: ligand immobilized to streptavidin magnetic beads; 3 μM recombinant soluble human B7-H3 ectodomain
Description: FIG. 9. Production and validation of ABYB7-H3.(A) Left panel: Commassie Blue staining of SDS-PAGE showing high purity and expected size (7,490 Da) of finalized ABYB7-H3 produced in E. Coli. Right panel: Mass spectrometric analysis of ABYB7-H3 showing a mass-to-charge peak (m/z=7,546) corresponding to ABY molecular weight. A doubly charged peak (m/z=3763) is also present. Amino acid sequence of ABYB7-H3 (SEQ ID NO:28) is shown on the bottom. (B) Flow cytometry of biotin-ABYB7-H3 conjugated streptavidin-microbeads complex showing binding to soluble recombinant B7-H3 (3 μM) as detected by APC conjugated anti-B7-H3 antibody. Unconjugated beads (negative control) and anti B7-H3 antibody (AB) conjugated beads (positive control) were also tested for binding to soluble B7-H3 antigen.
Production of ABYB7-H3. Development of a B7-H3-binding ligand from an ABY yeast display library is described in Example 1. […] ABYB7-H3 ligand was recombinantly expressed in E. coli, purified, and functionalized with 1:1 molar ratio of biotin. […] In order to confirm binding specificity of recombinantly produced ABYB7-H3 to its target, biotinylated-ABY was immobilized to streptavidin- magnetic beads and incubated with 3 μM of recombinant soluble human B7-H3 ectodomain protein.

binding to soluble B7-H3: 81%
B1: anti- B7-H3 antibody: biotinylated anti-B7-H3 antibody conjugated to beads as positive control (protein)
VHH: QVQLVESGGGLVQPGGSLRLSCAASGFTFSSYWMYWVRQTPGKGLEWVSTINRDGSATWYADSVKGRFTISRDNAKNTGYLQMNSLKPDDTAVYYCVSDPDNYSSDEMVPYWGQGTQVTVSS
